In patent US20250066503A1, “CELL INJURY INDUCING THERAPEUTIC DRUG FOR USE IN CANCER THERAPY” (CHUGAI SEIYAKU KABUSHIKI KAISHA, priority 2016, published 2025):
Substitutions are numbered along the chain they refer to. Names and notes keep the numbering of the source. Values joined by “and” are separate entries in the source; they are usually repeats but may differ in a detail not shown here. Equal values may be shown once.

B1: TR01H040-E22Hh/none-Hi-Kn010G3/TR01L013-k0 (antibody, V domains shown)
VH: QVQLVESGGGLVQPGRSLRLSCAASGFTFSNAWMHWVRQAPGKGLEWVAQIKDKSQNYATYYAESVKGRFTISRADSKNSIYLQMNSLKTEDTAVYYCRYVHYSASYGVDAWGQGTTVTVSS
VL: DIVMTQSPLSLPVTPGEPASISCQASESLVHSNRNTYLHWYLQKPGQSPQLLIYKVSNRFRGVPDRFSGSGSGTDFTLKISRVEAEDVGVYYCGQGTQVPYTFGQGTKVEIE
notes: one-arm
B2: TR01H084-E2702GsKsc/none-Hi-E2704sE/L0011-k0 (antibody, human IgG4 S228P, kappa, N297A, V domains shown)
VH: B1 VH with L11V, R16G, S104A, S106G, A111I
VL: DIVMTQSPLSLPVTPGEPASISCRSSQPLVHSNRNTYLHWYQQKPGQAPRLLIYKVSNRFSGVPDRFSGSGSGTDFTLKISRVEAEDVGVYYCGQGTQVPYTFGQGTKLEIKR
notes: one-arm
B3: TR01H040-E22Hh/none-Hi-Kn010G3/TR01L007-k0 (antibody, V domains shown)
VH: B1 VH
VL: B1 VL with R61S, V109L, E112K
notes: one-arm
B4: TR01H015-E22Hh/none-Hi-Kn010G3/TR01L003-k0 (antibody, human IgG1, L234A L235A, N297A)
heavy: QVQLVESGGGLVQPGRSLRLSCAASGFTFSNAWMHWVRQAPGKGLEWVAQIKGKSNNYATYYAESVKGRFTISRADSKNSIYLQMNSLKTEDTAVYYCRYVHYSASYGVDIWGQGTTVTVSSASTKGPSVFPLAPSSKSTSGGTAALGCLVKDYFPEPVTVSWNSGALTSGVHTFPAVLQSSGLYSLSSVVTVPSSSLGTQTYICNVNHKPSNTKVDKKVEPKSCDKTHTCPPCPAPEAAGGPSVFLFPPKPKDTLMISRTPEVTCVVVDVSHEDPEVKFNWYVDGVEVHNAKTKPREEQYASTYRVVSVLTVLHQDWLNGKEYKCKVSNKALPAPIEKTISKAKGQPREPQVYTLPPSRCELTKNQVSLSCAVKGFYPSDIAVEWESNGQPENNYKTTPPVLDSDGSFFLVSKLTVDKSRWQQGNVFSCSVMHEALHNHYTQKSLSLSPDYKDDDDK
VL: B1 VL with Q24R, A25S, E27Q, L42Q, S48A, Q50R, R61S
notes: one-arm
B5: TR01H067-E22Hh/none-Hi-Kn010G3/TR01L019-k0 (antibody, V domains shown)
VH: B1 VH with A75D, I81L, S104A
VL: B1 VL with L29P, R61S, G94Y, V109L, E112K
notes: one-arm
B6: TR01H077-E22Hh/none-Hi-Kn010G3/L0200-k0 (antibody, V domains shown)
VH: QVQLVESGGGLVQPGRSLRLSCAASGFTFSNAWMHWVRQAPGKGLEWVAQIKDKSNNYATYYAESVKGRFTISRADSKNSIYLQMNSLKTEDTAVYYCRYVHYAAAEMVRDDIWGQGTTVTVSS
VL: B1 VL with Q24R, A25P, E27Q, L29P, L42Q, S48A, Q50R, R61S, V109L, E112K
notes: one-arm
B7: TR01H040-E22Hh/none-Hi-Kn010G3/TR01L012-k0 (antibody, V domains shown)
VH: B1 VH
VL: B1 VL with Q24R, A25S, E27Q
notes: one-arm
B8: TR01H040-E22Hh/none-Hi-Kn010G3/TR01L019-k0 (antibody, V domains shown)
VH: B1 VH
VL: B1 VL with L29P, R61S, G94Y, V109L, E112K
notes: one-arm
B9: TR01H082-E22Hh/none-Hi-Kn010G3/TR01L020-k0 (antibody, V domains shown)
VH: B1 VH with A75D, I81L, S104A, S106G
VL: B1 VL with L29P, L38I, H39Q, R61S, G94Y, V109L, E112K
notes: one-arm
B10: TR01H109-E2702GsKsc/none-Hi-E2704sE/L0011-k0 (antibody, human IgG4 S228P, kappa, N297A, V domains shown)
VH: B1 VH with Y62V, A75D, I81L, S104A, S106G
VL: B2 VL
notes: one-arm
B11: TR01H082-E2702GsKsc/none-Hi-E2704sE/L0011-k0 (antibody, human IgG4 S228P, kappa, N297A, V domains shown)
VH: B1 VH with A75D, I81L, S104A, S106G
VL: B2 VL
notes: one-arm
B12: TR01H015-E22Hh/none-Hi-Kn010G3/TR01L006-k0 (antibody, human IgG1, L234A L235A, N297A, V domains shown)
VH: B1 VH with D53G, Q56N, A111I
VL: B1 VL with R61S
notes: one-arm
B13: TR01H113-E2702GsKsc/none-Hi-E2704sE/L0011-k0 (antibody, human IgG4 S228P, kappa, N297A, V domains shown)
VH: B1 VH with L11V, R16G, Y62V, S104A, S106G, A111I
VL: B2 VL
notes: one-arm
B14: TR01H015-E22Hh/none-Hi-Kn010G3/TR01L001-k0 (antibody, human IgG1, L234A L235A, N297A)
heavy: B4 heavy
VL: B1 VL with L42Q, S48A, Q50R, R61S, V109L, E112K
notes: one-arm
B15: TR01H015-E22Hh/none-Hi-Kn010G3/TR01L005-k0 (antibody, human IgG1, L234A L235A, N297A)
heavy: B4 heavy
VL: B1 VL with Q24R, A25S, E27Q, R61S
notes: one-arm
B16: TR01H015-E22Hh/none-Hi-Kn010G3/TR01L004-k0 (antibody, human IgG1, L234A L235A, N297A)
heavy: B4 heavy
VL: B1 VL with L42Q, S48A, Q50R, R61S
notes: one-arm
B17: TR01H015-E22Hh/none-Hi-Kn010G3/TR01L002-k0 (antibody, human IgG1, L234A L235A, N297A)
heavy: B4 heavy
VL: B1 VL with Q24R, A25S, E27Q, R61S, V109L, E112K
notes: one-arm
B18: TR01H080-E22Hh/none-Hi-Kn010G3/L0000-k0 (antibody, V domains shown)
VH: QVQLVESGGGLVQPGRSLRLSCAASGFTFSNAWMHWVRQAPGKGLEWVAQIKDKSNNYATYYAESVKGRFTISRADSKNSIYLQMNSLKTEDTAVYYCRYVHYAAVRRRLSSYGVDIWGQGTTVTVSS
VL: B2 VL with P28S
notes: one-arm
B19: rCE115H-E22Hh/none-Hi-Kn010G3/L0000-k0 (antibody, human IgG1, kappa, L234A L235A, N297A, V domains shown)
VH: EVQLVETGGSLVQPGKSLKLTCATSGFTFSNAWMHWVRQSPEKQLEWVAQIKAKSNNYATYYAESVKGRFTISRDDSKSNIYLQMNSLKEEDTAVYYCRYVHYGAYYGVDAWGQGTSVTVSS
VL: B2 VL with P28S
notes: one-arm
B20: TR01H079-E22Hh/none-Hi-Kn010G3/L0000-k0 (antibody, V domains shown)
VH: B18 VH with V106A, R107E, R108M, R109V, L110R, S111D
VL: B2 VL with P28S
notes: one-arm
B21: GPC3_ERY22_CE115 (rCE115H-E22Hh/rCE115L-k0/GL4-E22Hk/H0000-E22L) (bispecific antibody, human IgG1, kappa, L234A L235A, N297A)
heavy: EVQLVETGGSLVQPGKSLKLTCATSGFTFSNAWMHWVRQSPEKQLEWVAQIKAKSNNYATYYAESVKGRFTISRDDSKSNIYLQMNSLKEEDTAVYYCRYVHYGAYYGVDAWGQGTSVTVSSASTKGPSVFPLAPSSKSTSGGTAALGCLVKDYFPEPVTVSWNSGALTSGVHTFPAVLQSSGLYSLSSVVTVPSSSLGTQTYICNVNHKPSNTKVDKKVEPKSCDKTHTCPPCPAPEAAGGPSVFLFPPKPKDTLMISRTPEVTCVVVDVSHEDPEVKFNWYVDGVEVHNAKTKPREEQYASTYRVVSVLTVLHQDWLNGKEYKCKVSNKALPAPIEKTISKAKGQPREPQVYTLPPSRCELTKNQVSLSCAVKGFYPSDIAVEWESNGQPENNYKTTPPVLDSDGSFFLVSKLTVDKSRWQQGNVFSCSVMHEALHNHYTQKSLSLSPDYKDDDDK
light: DVVMTQTPVSMSVSLGGQVSISCRSSQSLVHNNGNTYVSWYIQKPSQSPQLLIYKVSNRFSGISDRFSGSGSGTDFTLKISRVEPDDLGVYYCGQGTQDPYTFGAGTKLELKRTVAAPSVFIFPPSDEQLKSGTASVVCLLNNFYPREAKVQWKVDNALQSGNSQESVTEQDSKDSTYSLSSTLTLSKADYEKHKVYACEVTHQGLSSPVTKSFNRGEC
chain 1: DIVMTQSPLSLPVTPGEPASISCRSSQSLVHSNRNTYLHWYQQKPGQAPRLLIYKVSNRFSGVPDRFSGSGSGTDFTLKISRVEAEDVGVYYCSQNTHVPPTFGQGTKLEIKSSASTKGPSVFPLAPSSKSTSGGTAALGCLVKDYFPEPVTVSWNSGALTSGVHTFPAVLQSSGLYSLSSVVTVPSSSLGTQTYICNVNHKPSNTKVDKKVEPKSCDKTHTCPPCPAPEAAGGPSVFLFPPKPKDTLMISRTPEVTCVVVDVSHEDPEVKFNWYVDGVEVHNAKTKPREEQYASTYRVVSVLTVLHQDWLNGKEYKCKVSNKALPAPIEKTISKAKGQPREPQVCTLPPSRDELTKNQVSLWCLVKGFYPSDIAVEWESNGQPENNYKTTPPVLDSDGSFFLYSKLTVDKSRWQQGNVFSCSVMHEALHNHYTQKSLSLSPHHHHHHHH
chain 2: QVQLVQSGAEVKKPGASVKVSCKASGYTFTDYEMHWIRQPPGQGLEWIGAIDPKTGDTAYSQKFKGRVTLTADKSTSTAYMELSSLTSEDTAVYYCTRFYSYTYWGQGTLVTVSSASVAAPSVFIFPPSDEQLKSGTASVVCLLNNFYPREAKVQWKVDNALQSGNSQESVTEQDSKDSTYSLSSTLTLSKADYEKHKVYACEVTHQGLSSPVTKSFNRGEC
notes: ERY22 format
B22: rCE115H-E22Hh/none-Hi-Kn010G3/L0000vk1-k0 (antibody, human IgG1, L234A L235A, N297A, V domains shown)
VH: B19 VH
VL: DIQMTQSPSSLSASVGDRVTITCRSSQSLVHSNRNTYLHWYQQKPGKAPKLLIYKVSNRFSGVPSRFSGSGSGTDFTFTISSLQPEDIATYYCGQGTQVPYTFGQGTKVEIK
notes: one-arm
B23: rCE115H-E22Hh/none-Hi-Kn010G3/rCE115L-k0 (antibody, human IgG1, kappa, L234A L235A, N297A, V domains shown)
VH: B19 VH
VL: DVVMTQTPVSMSVSLGGQVSISCRSSQSLVHNNGNTYVSWYIQKPSQSPQLLIYKVSNRFSGISDRFSGSGSGTDFTLKISRVEPDDLGVYYCGQGTQDPYTFGAGTKLELKR
notes: one-arm; also called rCE115H-E22Hh//-Hi-Kn010G3/rCE115L-k0

Target: T1, soluble human CD3 epsilon chain (human, UniProt P07766 23-126)
T1 construct: also called CD3ε
T1 sequence (P07766 23-126 limits assumed): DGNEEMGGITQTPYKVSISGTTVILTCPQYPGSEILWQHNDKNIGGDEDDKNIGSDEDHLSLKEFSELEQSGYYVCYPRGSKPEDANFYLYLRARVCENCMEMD
Experiment: SPR

Binder | Kd
B1 | 41.5 nM
B2 | 4.14 nM
B3 | 68.2 nM
B4 | 63.4 nM
B5 | 12.1 nM
B6 | 6.12 nM
B7 | 42.2 nM
B8 | 3.2 nM
B9 | 106 nM
B10 | 16.4 nM
B11 | 10.1 nM
B12 | 93 nM
B13 | 5.14 nM
B14 | 65.6 nM
B15 | 65.3 nM
B16 | 73.4 nM
B17 | 71.4 nM
B18 | 3.25 nM
B19 | 80 nM
B20 | 50.5 nM
B21 | 93.7 nM
B22 | 85.2 nM
B23 | 124 nM and 138 nM
